Results from publication PMC11667226 (Theranostics, 2025).
Marks after values point to notes of the source that are not given here. Non-standard residues stand in square brackets, D forms with d. Residues, ends and D or L forms follow the SMILES beside them. *: point of attachment. X1 = CC1(C)C(=CC=CC=CC=CC2=[N+](CCCCCC(=O)*)c3ccc4ccccc4c3C2(C)C)N(CCCCS(=O)(=O)[O-])c2ccc3ccccc3c21; Cha = N[C@@H](CC1CCCCC1)C(=O)O

Columns and labels:
[1] = tested on: neck lymph node metastasis; test: Optical visualization of neck lymph node metastasis; format: in vivo, human
Procedure: (§1) All patients were treated surgically according to the national guidelines. The primary investigator (PI) was part of the surgical team in all procedures. A surgical robot system (DaVinci Si, Intuitive) was used for TORS in the two patients with OPSCC. The surgeons were not allowed to resect tissue based on intraoperative detected fluorescence signal but complied with standard of care. Depending on the clinical TNM staging (based on clinical examination, ultrasonography examination of the neck, and MRI or CT scans), either sentinel lymph node biopsy (using 99^mTc-nanocoll) or neck dissection was performed for neck management. Post-surgical (chemo)radiation was prescribed according to national guidelines at a multidisciplinary conference. The pre-, intraoperative, and ex-vivo optical images were obtained using the open-field imaging system Elevision® model VS3 Iridium-Visionsense Infrared (IR) Fluorescence, Vision System (Medtronics, USA). Image profile: NIR_highcontrast or NIR_contrast, excitation laser: 805 nm. The Elevision IR system generates real-time optical imaging merged with the color video recording on a viewer screen. The intensity-dependent multi-color NIR overlay was presented in parallel with white-light and NIR grayscale images. The camera head was mounted on a maneuverable arm over the surgical field with sterile draping. The preferred camera-to-tumor distance was 20-40 centimeters, but the system also allows positioning at closer or longer distances to areas of interest. For optimal imaging, all other light sources in the OR were switched off and window blinds were closed. The imaging system itself provides powerful white light illumination of the surgical field when imaging is performed.
The exploratory endpoints were defined as: 1) Morphological co-localization between optical signal, tumor tissue, and target (i.e. uPAR) expression, 2) Optical visualization of local neck lymph node metastasis, and 3) Longitudinal investigation of the optimal signal intensity for intraoperative imaging.

[2] = 40 patients with malignant glioblastoma, 1 to 48 mg; ref [15],[33]; cited from earlier work
[3] = clinical
Procedure: The blood samples were collected in Vacuette® 3 mL K2E K2EDTA vacutainer blood collection tubes, centrifuged (2500 rpm for 10 min at 4 °C), and the plasma was stored in a -20 °C freezer. Plasma concentrations were measured based on liquid chromatography with tandem mass spectrometric detection (LC-MS/MS) validated according to good laboratory practice (GLP), (LabCorp, Huntingdon, UK). The PK analysis was performed using a non-compartmental analysis method. […] The terminal phase half-life (T½) was calculated using terminal phase rate constant, which resulted from linear regression of the terminal linear portion of the log-concentration vs. time curve.
The primary endpoint was the sensitivity for detection of oral and oropharyngeal cancer verified by histology. The secondary endpoints were divided into efficacy and safety & tolerability. Regarding efficacy, the TBR and intraoperative tumor signal intensity were endpoints. The pharmacokinetics profile determined by a non-compartmental analysis was specified by peak plasma concentration, time of peak plasma concentration, the area under the plasma concentration-time curve from time-zero extrapolated to infinity, and terminal half-life. The safety & tolerability were assessed with adverse event monitoring, laboratory parameters, ECGs, vital signs, and physical examinations.

[4] = tested on: oral and oropharyngeal squamous cell carcinoma (OSCC, OPSCC); test: Intraoperative near-infrared optical imaging: tumor-to-background ratio and absolute intensities (Elevision); format: in vivo, human; conditions: for TBR (mean (range)): preoperative NIR image, max tumor ROI / mean of 3 background ROIs, Elevision, 805 nm
Procedure: as §1
All images and videos were stored in JPG- and mp4-file format. The following images were captured for all 16 patients who completed the trial: 1) Preoperative images of the tumor. 2) Intraoperative images of the tumor and metastatic lymph nodes. 3) Images of the surgical cavity (i.e., tumor bed) after tumor resection. 4) Ex-vivo images of the resected tumor specimen on the back-table, see Figure 2.
For imaging analysis, the TBR was calculated as the maximum fluorescence intensity of the tumor region of interest (ROI) divided by the mean fluorescence intensity of 3 background ROIs on a preoperative NIR image by use of an in-house designed Python-based annotation tool. The tumor ROIs were drawn based on information from intraoperative clinical observations, and preoperative white-light and NIR images. Background ROIs were defined within the soft tissues adjacent to the tumor. The absolute numeric intensities were obtained by adjusting the fluorescence intensity for the specific gain values applied by the imaging system.

CC(C)C[C@H](NC(=O)[C@H](Cc1ccc(O)cc1)NC(=O)[C@@H](CCCNC(=N)N)NC(=O)[C@@H](CO)NC(=O)[C@H](Cc1ccccc1)NC(=O)[C@H](CC1CCCCC1)NC(=O)[C@H](CC(=O)O)NC(=O)[C@H](CCC(=O)O)NC(=O)[C@H](CCC(=O)O)NC(=O)CCCCC[N+]1=C(C=CC=CC=CC=C2N(CCCCS(=O)(=O)[O-])c3ccc4ccccc4c3C2(C)C)C(C)(C)c2c1ccc1ccccc21)C(=O)N[C@@H](Cc1c[nH]c2ccccc12)C(=O)N[C@@H](CO)C(=O)O [FG001, ICG-Glu-Glu-AE105] (X1-EED[Cha]F[dS][dR]YLWS-OH; N-terminus and C-terminus assumed)
Intraoperative visualization of clinical neck metastasis ([1]; during neck dissection, confirmed on back table and by pathology): clearly visualized | Uptake in adjacent unaffected lymph nodes ([1]; no systematic imaging of lymph nodes without clinical evidence of metastasis): No uptake | Optical signal of harvested sentinel nodes ([1]; two cases with SNB staging, nodes all negative for metastatic deposits on final pathology): absent or weak optical signal | Grade I drug-related adverse events, number [2]: 3 | Grade II drug-related adverse events, number [2]: 1 | Safety and tolerability [2]: safe and well-tolerated | Extrapolation to AUC from 0 to infinity (AUC0-inf) ([3]; all patients with a valid terminal phase): < 25% | Mean half-life of FG001 ([3]; human plasma, based on the plasma concentration measurements, all evaluable patients): approximately 12 hours | Maximum concentration (mean (SD)) ([3]; human plasma, single 4 mg i.v. dose, n = 4, LC-MS/MS): 577 (373)* ng/mL | Time of peak plasma concentration ([3]; human plasma, single i.v. dose, first sample at 1 hr ± 15 min): within the first hour | Tmax ([3]; human, plasma, iv): 1 h | Cmax ([3]; human, plasma, iv, 16 mg): 4300 ng/mL | Cmax ([3]; human, plasma, iv, 36 mg): 8130 ng/mL | half-life ([3]; human, plasma, iv, 36 mg): 11.2 h | Time of peak plasma concentration, one outlier ([3]; one patient in the 4 mg group): 12.8 h | TBR (mean (range)) ([4]; FG001 4 mg i.v., n = 4 completed): 3.07 (2.30 - 3.48)* | TBR (mean (range)) ([4]; FG001 16 mg i.v., n = 8): 2.91 (2.02 - 3.95) | TBR (mean (range)) ([4]; FG001 36 mg i.v., n = 4): 3.08 (2.68 - 3.46) | TBR (contrast for demarcation of tumors), consistently ([4]; all patients, even at the lowest dose): above 2
